Assays:
[1] = biological target: human preproinsulin (human); conditions: scale: % of intracellular human insulin species left as proinsulin and intermediates
[2] = biological target: human preproglucagon (human)
[3] = biological target: mutated human preproglucagon (arginine to alanine at amino acid residue 52) (human)

HPLC separation of intracellular immunoreactive insulin species (processing of human proinsulin to mature insulin in engineered RIN cells) [1] | NON (% TOTAL): non-amidated GLP-1 as percentage of total GLP-1 (non-amidated and amidated), by two specific immunoassays (% non-amidated of total GLP-1) [2] | NON (% TOTAL): non-amidated GLP-1 as percentage of total GLP-1 (non-amidated and amidated), by two specific immunoassays (% non-amidated of total GLP-1) [3] | Substance
8 |  |  | PC3 (from UniProt P28840) (enzyme)
8 |  |  | PC2 (from UniProt P28841) (enzyme)
 | 49 | 59 | peptidylglycine alpha-amidating monooxygenase (PAM) (from UniProt P14925) (enzyme)

Source: patent US6110707
